Experimental findings from patent US20120214741A1 (BEN GURION UNIVERSITY OF THE NEGEV RESEARCH AND DEVELOPMENT …, published 2012) are described below.

Test [1] addresses T1, Rat brain HK-I (hexokinase-I), purified (rat, UniProt P05708 1-918).
T1 construct: Purified from rat brain; Used in the planar lipid bilayer and isolated-mitochondria assays
T1 sequence (looked up): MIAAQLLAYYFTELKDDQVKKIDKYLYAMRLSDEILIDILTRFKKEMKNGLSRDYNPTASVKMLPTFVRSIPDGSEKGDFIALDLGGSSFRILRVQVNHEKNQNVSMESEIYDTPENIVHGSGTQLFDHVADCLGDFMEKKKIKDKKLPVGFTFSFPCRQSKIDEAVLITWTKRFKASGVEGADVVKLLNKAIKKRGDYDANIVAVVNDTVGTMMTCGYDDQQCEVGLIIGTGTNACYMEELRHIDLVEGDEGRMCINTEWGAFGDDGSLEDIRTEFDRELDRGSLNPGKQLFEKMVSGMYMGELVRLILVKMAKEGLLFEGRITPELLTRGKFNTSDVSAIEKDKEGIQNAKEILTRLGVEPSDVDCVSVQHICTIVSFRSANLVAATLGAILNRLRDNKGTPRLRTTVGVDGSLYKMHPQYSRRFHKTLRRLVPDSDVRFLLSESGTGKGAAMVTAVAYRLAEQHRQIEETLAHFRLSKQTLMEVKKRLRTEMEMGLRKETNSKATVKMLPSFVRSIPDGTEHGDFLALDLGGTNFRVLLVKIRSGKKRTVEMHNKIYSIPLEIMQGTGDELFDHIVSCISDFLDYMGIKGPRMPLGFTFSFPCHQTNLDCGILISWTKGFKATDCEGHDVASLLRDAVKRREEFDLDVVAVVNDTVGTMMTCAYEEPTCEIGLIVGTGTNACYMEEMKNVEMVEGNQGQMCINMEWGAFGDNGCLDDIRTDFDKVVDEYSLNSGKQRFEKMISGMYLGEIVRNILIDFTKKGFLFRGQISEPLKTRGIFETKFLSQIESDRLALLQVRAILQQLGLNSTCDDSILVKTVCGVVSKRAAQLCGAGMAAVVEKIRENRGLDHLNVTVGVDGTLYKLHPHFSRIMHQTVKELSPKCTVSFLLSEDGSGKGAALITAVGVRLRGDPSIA
The test can be described thus: detachment of HK-I from rat brain mitochondria by the peptide (competition); HK-I activity in the supernatant.

For test [2], the target named is T1, Rat brain HK-I (hexokinase-I), purified. The test can be described thus: purified proteins, VDAC1 reconstituted into a planar lipid bilayer, channel recording. As to the method: Only PLBs with a resistance greater than 100 GΩ were used. Purified VDAC (about 1 ng) was added to the chamber defined as the cis side. […] Sigma Plot 2000 scientific software was used for data analyses. Experiments were performed at 23-25° C.

B1: Peptide LP1 (VDAC1 loop 1 peptide) (peptide)
peptide: WTEYGLTFTEKWNTD
notes: No CPP or Trp zipper in these assays; also called LP1 peptide
In the case of B1, the binding result in test [1] was “binds”.

B2: native mVDAC1 (mouse VDAC1), purified recombinant (other)
chain: MAVPPTYADLGKSARDVFTKGYGFGLIKLDLKTKSENGLEFTSSGSANTETTKVNGSLETKYRWTEYGLTFTEKWNTDNTLGTEITVEDQLARGLKLTFDSSFSPNTGKKNAKIKTGYKREHINLGCDVDFDIAGPSIRGALVLGYEGWLAGYQMNFETSKSRVTQSNFAVGYKTDEFQLHTNVNDGTEFGGSIYQKVNKKLETAVNLAWTAGNSNTRFGIAAKYQVDPDACFSAKVNNSSLIGLGYTQTLKPGIKLTLSALLDGKNVNAGGHKLGLGLEFQA
notes: Extracted from mitochondria of yeast expressing mVDAC1, purified and reconstituted into a planar lipid bilayer; also called native VDAC1
As to B2, the binding result in test [2] is given as “binds”.
